B1: N^ε1-[(4S)-4-carboxy-4-[[(4S)-4-carboxy-4-(19-carboxynonadecanoylamino)butanoyl]amino]butanoyl]-[Arg17,Pro21,Pro27,His34]-h-amylin (peptide)
peptide: K([γGlu-γGlu-C20 diacid])CNTATCATQRLANFLRHSSPNFGAIPSSTNVGHNTY-NH2
modifications: disulfide 2-7; N-terminus assumed
SMILES: CC[C@H](C)[C@H](NC(=O)[C@H](C)NC(=O)CNC(=O)[C@H](Cc1ccccc1)NC(=O)[C@H](CC(N)=O)NC(=O)[C@@H]1CCCN1C(=O)[C@H](CO)NC(=O)[C@H](CO)NC(=O)[C@H](Cc1c[nH]cn1)NC(=O)[C@H](CCCNC(=N)N)NC(=O)[C@H](CC(C)C)NC(=O)[C@H](Cc1ccccc1)NC(=O)[C@H](CC(N)=O)NC(=O)[C@H](C)NC(=O)[C@H](CC(C)C)NC(=O)[C@H](CCCNC(=N)N)NC(=O)[C@H](CCC(N)=O)NC(=O)[C@@H](NC(=O)[C@H](C)NC(=O)[C@@H]1CSSC[C@H](NC(=O)[C@@H](N)CCCCNC(=O)CC[C@H](NC(=O)CC[C@H](NC(=O)CCCCCCCCCCCCCCCCCCC(=O)O)C(=O)O)C(=O)O)C(=O)N[C@@H](CC(N)=O)C(=O)N[C@@H]([C@@H](C)O)C(=O)N[C@@H](C)C(=O)N[C@@H]([C@@H](C)O)C(=O)N1)[C@@H](C)O)C(=O)N1CCC[C@H]1C(=O)N[C@@H](CO)C(=O)N[C@@H](CO)C(=O)N[C@H](C(=O)N[C@@H](CC(N)=O)C(=O)N[C@H](C(=O)NCC(=O)N[C@@H](Cc1c[nH]cn1)C(=O)N[C@@H](CC(N)=O)C(=O)N[C@H](C(=O)N[C@@H](Cc1ccc(O)cc1)C(N)=O)[C@@H](C)O)C(C)C)[C@@H](C)O
notes: Analogue of human amylin; disulfide and C-terminal amide as told for h-amylin; also called compound 86
B2: N^ε1-[(4S)-4-carboxy-4-[[(4S)-4-carboxy-4-(19-carboxynonadecanoylamino)butanoyl]amino]butanoyl]-[Glu14,Arg17,Pro21,Pro27,Arg34]-h-amylin (peptide)
peptide: K([γGlu-γGlu-C20 diacid])CNTATCATQRLAEFLRHSSPNFGAIPSSTNVGRNTY-NH2
modifications: disulfide 2-7; N-terminus assumed
SMILES: CC[C@H](C)[C@H](NC(=O)[C@H](C)NC(=O)CNC(=O)[C@H](Cc1ccccc1)NC(=O)[C@H](CC(N)=O)NC(=O)[C@@H]1CCCN1C(=O)[C@H](CO)NC(=O)[C@H](CO)NC(=O)[C@H](Cc1c[nH]cn1)NC(=O)[C@H](CCCNC(=N)N)NC(=O)[C@H](CC(C)C)NC(=O)[C@H](Cc1ccccc1)NC(=O)[C@H](CCC(=O)O)NC(=O)[C@H](C)NC(=O)[C@H](CC(C)C)NC(=O)[C@H](CCCNC(=N)N)NC(=O)[C@H](CCC(N)=O)NC(=O)[C@@H](NC(=O)[C@H](C)NC(=O)[C@@H]1CSSC[C@H](NC(=O)[C@@H](N)CCCCNC(=O)CC[C@H](NC(=O)CC[C@H](NC(=O)CCCCCCCCCCCCCCCCCCC(=O)O)C(=O)O)C(=O)O)C(=O)N[C@@H](CC(N)=O)C(=O)N[C@@H]([C@@H](C)O)C(=O)N[C@@H](C)C(=O)N[C@@H]([C@@H](C)O)C(=O)N1)[C@@H](C)O)C(=O)N1CCC[C@H]1C(=O)N[C@@H](CO)C(=O)N[C@@H](CO)C(=O)N[C@H](C(=O)N[C@@H](CC(N)=O)C(=O)N[C@H](C(=O)NCC(=O)N[C@@H](CCCNC(=N)N)C(=O)N[C@@H](CC(N)=O)C(=O)N[C@H](C(=O)N[C@@H](Cc1ccc(O)cc1)C(N)=O)[C@@H](C)O)C(C)C)[C@@H](C)O
notes: Analogue of human amylin; disulfide and C-terminal amide as told for h-amylin; also called compound 88
B3: N^ε1-[(4S)-4-carboxy-4-[[(4S)-4-carboxy-4-(19-carboxynonadecanoylamino)butanoyl]amino]butanoyl]-[Glu14,Arg17,Pro21,Pro27,His34]-h-amylin (peptide)
peptide: K([γGlu-γGlu-C20 diacid])CNTATCATQRLAEFLRHSSPNFGAIPSSTNVGHNTY-NH2
modifications: disulfide 2-7; N-terminus assumed
SMILES: CC[C@H](C)[C@H](NC(=O)[C@H](C)NC(=O)CNC(=O)[C@H](Cc1ccccc1)NC(=O)[C@H](CC(N)=O)NC(=O)[C@@H]1CCCN1C(=O)[C@H](CO)NC(=O)[C@H](CO)NC(=O)[C@H](Cc1c[nH]cn1)NC(=O)[C@H](CCCNC(=N)N)NC(=O)[C@H](CC(C)C)NC(=O)[C@H](Cc1ccccc1)NC(=O)[C@H](CCC(=O)O)NC(=O)[C@H](C)NC(=O)[C@H](CC(C)C)NC(=O)[C@H](CCCNC(=N)N)NC(=O)[C@H](CCC(N)=O)NC(=O)[C@@H](NC(=O)[C@H](C)NC(=O)[C@@H]1CSSC[C@H](NC(=O)[C@@H](N)CCCCNC(=O)CC[C@H](NC(=O)CC[C@H](NC(=O)CCCCCCCCCCCCCCCCCCC(=O)O)C(=O)O)C(=O)O)C(=O)N[C@@H](CC(N)=O)C(=O)N[C@@H]([C@@H](C)O)C(=O)N[C@@H](C)C(=O)N[C@@H]([C@@H](C)O)C(=O)N1)[C@@H](C)O)C(=O)N1CCC[C@H]1C(=O)N[C@@H](CO)C(=O)N[C@@H](CO)C(=O)N[C@H](C(=O)N[C@@H](CC(N)=O)C(=O)N[C@H](C(=O)NCC(=O)N[C@@H](Cc1c[nH]cn1)C(=O)N[C@@H](CC(N)=O)C(=O)N[C@H](C(=O)N[C@@H](Cc1ccc(O)cc1)C(N)=O)[C@@H](C)O)C(C)C)[C@@H](C)O
notes: Analogue of human amylin; disulfide and C-terminal amide as told for h-amylin; also called compound 87
B4: N^ε1-[(4S)-4-carboxy-4-[[(4S)-4-carboxy-4-(19-carboxynonadecanoylamino)butanoyl]amino]butanoyl]-[Glu14,Arg17,Pro21,Pro27,Arg35]-h-amylin (peptide)
peptide: K([γGlu-γGlu-C20 diacid])CNTATCATQRLAEFLRHSSPNFGAIPSSTNVGSRTY-NH2
modifications: disulfide 2-7; N-terminus assumed
SMILES: CC[C@H](C)[C@H](NC(=O)[C@H](C)NC(=O)CNC(=O)[C@H](Cc1ccccc1)NC(=O)[C@H](CC(N)=O)NC(=O)[C@@H]1CCCN1C(=O)[C@H](CO)NC(=O)[C@H](CO)NC(=O)[C@H](Cc1c[nH]cn1)NC(=O)[C@H](CCCNC(=N)N)NC(=O)[C@H](CC(C)C)NC(=O)[C@H](Cc1ccccc1)NC(=O)[C@H](CCC(=O)O)NC(=O)[C@H](C)NC(=O)[C@H](CC(C)C)NC(=O)[C@H](CCCNC(=N)N)NC(=O)[C@H](CCC(N)=O)NC(=O)[C@@H](NC(=O)[C@H](C)NC(=O)[C@@H]1CSSC[C@H](NC(=O)[C@@H](N)CCCCNC(=O)CC[C@H](NC(=O)CC[C@H](NC(=O)CCCCCCCCCCCCCCCCCCC(=O)O)C(=O)O)C(=O)O)C(=O)N[C@@H](CC(N)=O)C(=O)N[C@@H]([C@@H](C)O)C(=O)N[C@@H](C)C(=O)N[C@@H]([C@@H](C)O)C(=O)N1)[C@@H](C)O)C(=O)N1CCC[C@H]1C(=O)N[C@@H](CO)C(=O)N[C@@H](CO)C(=O)N[C@H](C(=O)N[C@@H](CC(N)=O)C(=O)N[C@H](C(=O)NCC(=O)N[C@@H](CO)C(=O)N[C@@H](CCCNC(=N)N)C(=O)N[C@H](C(=O)N[C@@H](Cc1ccc(O)cc1)C(N)=O)[C@@H](C)O)C(C)C)[C@@H](C)O
notes: Analogue of human amylin; disulfide and C-terminal amide as told for h-amylin; also called compound 89

Numbered stars: 1 amine (or outer) side, 2 acyl side, 3 side chain; on linkers, the order of the positions; unused ones are H or OH. Bridge positions count the residues as written; N and C are the ends. Side chains are listed from the residue outwards. Ends that are not written are not given here. * marks the point of attachment. C20 diacid = O=C(O)CCCCCCCCCCCCCCCCCCC(=O)*; γGlu = O=C(O)[C@H](CCC(=O)[*:2])N[*:1]

The first assay deals with T1, rat calcitonin receptor (rat, UniProt P32214 25-516).
T1 construct: whole, on cells; Used as membranes prepared from the transfected cells; also called rCTR; rCT
T1 sequence (looked up): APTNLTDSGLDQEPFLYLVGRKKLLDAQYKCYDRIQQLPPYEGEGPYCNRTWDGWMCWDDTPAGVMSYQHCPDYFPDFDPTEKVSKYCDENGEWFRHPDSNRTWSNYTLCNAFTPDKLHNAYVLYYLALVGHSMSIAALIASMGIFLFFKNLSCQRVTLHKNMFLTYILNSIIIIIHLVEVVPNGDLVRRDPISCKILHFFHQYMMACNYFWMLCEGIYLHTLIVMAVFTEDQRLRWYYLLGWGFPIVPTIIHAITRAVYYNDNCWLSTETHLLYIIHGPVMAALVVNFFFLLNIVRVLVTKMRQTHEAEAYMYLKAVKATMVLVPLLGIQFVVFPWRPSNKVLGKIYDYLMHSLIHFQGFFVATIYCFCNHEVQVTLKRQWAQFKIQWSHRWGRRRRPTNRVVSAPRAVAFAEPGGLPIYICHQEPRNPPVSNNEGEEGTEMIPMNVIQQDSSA
Description: SPA competition with 125I-calcitonin, membranes with rat calcitonin receptor (Assay VIII).
As usually defined, the IC50 is the concentration that inhibits the measured activity by half. B1: the IC50 came to 352 nM.

As for B2, the IC50 worked out at 196 nM.

On to B3, for which the IC50 came to 94.5 nM.

Regarding B4, the IC50 came out at 115 nM.

The target in the next assay is T1, rat calcitonin receptor. Description: ratio of binding IC50 at rat calcitonin receptor to IC50 at rat amylin receptor (reference).
On to B1, for which the “Ratio rCT/rAmylin binding” value was 126.

On to B2, for which the “Ratio rCT/rAmylin binding” value was determined as 84.9.

Regarding B3, the “Ratio rCT/rAmylin binding” value stood at 45.6.

As to B4, the “Ratio rCT/rAmylin binding” value was determined as 48.8.

Another assay addresses T2, human calcitonin receptor (human, UniProt P30988 25-474).
T2 construct: whole, on cells; Used as membranes prepared from the transfected cells; also called hCTR; hCT
T2 sequence (looked up): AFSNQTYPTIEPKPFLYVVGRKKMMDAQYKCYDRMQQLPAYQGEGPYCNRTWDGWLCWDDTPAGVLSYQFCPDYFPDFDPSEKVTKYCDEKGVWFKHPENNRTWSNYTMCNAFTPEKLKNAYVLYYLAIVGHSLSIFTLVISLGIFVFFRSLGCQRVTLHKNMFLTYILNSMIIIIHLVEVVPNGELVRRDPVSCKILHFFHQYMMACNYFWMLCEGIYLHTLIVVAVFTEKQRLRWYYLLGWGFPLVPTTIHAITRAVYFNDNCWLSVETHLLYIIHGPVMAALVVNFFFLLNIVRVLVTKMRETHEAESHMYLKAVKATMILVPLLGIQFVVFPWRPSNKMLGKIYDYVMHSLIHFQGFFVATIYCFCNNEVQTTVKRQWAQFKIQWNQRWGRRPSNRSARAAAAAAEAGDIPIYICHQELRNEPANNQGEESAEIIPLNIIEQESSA
The assay is described as follows: ratio of binding IC50 at human calcitonin receptor to IC50 at human amylin receptor (reference). In short, it runs like this:
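IC₅₀ values were derived by one-site competition analysis of SPA counts. Cell membranes (35 ng/μL) with SPA beads were incubated with test compounds for 120 min at 25° C in Hepes buffer, pH 7.4, containing CaCl2, MgCl₂, OA and Tween20.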
For the molecule B1, the “Ratio hCT/hAmylin binding” value was found to be 159.

For the molecule B2, the “Ratio hCT/hAmylin binding” value amounted to 46.5.

B3: the “Ratio hCT/hAmylin binding” value was 35.6.

In the case of B4, the “Ratio hCT/hAmylin binding” value worked out at 28.

(Values after patent publication US20140087995A1 (published 2014).)
